Patent publication US20100167390, “Novel Oligonucleotide and NF-kB Decoy Comprising the Same” (published 2010)

T1: NF-kB p52 (NFKB2) (UniProt Q00653 Q00653:1-454)
T1 sequence: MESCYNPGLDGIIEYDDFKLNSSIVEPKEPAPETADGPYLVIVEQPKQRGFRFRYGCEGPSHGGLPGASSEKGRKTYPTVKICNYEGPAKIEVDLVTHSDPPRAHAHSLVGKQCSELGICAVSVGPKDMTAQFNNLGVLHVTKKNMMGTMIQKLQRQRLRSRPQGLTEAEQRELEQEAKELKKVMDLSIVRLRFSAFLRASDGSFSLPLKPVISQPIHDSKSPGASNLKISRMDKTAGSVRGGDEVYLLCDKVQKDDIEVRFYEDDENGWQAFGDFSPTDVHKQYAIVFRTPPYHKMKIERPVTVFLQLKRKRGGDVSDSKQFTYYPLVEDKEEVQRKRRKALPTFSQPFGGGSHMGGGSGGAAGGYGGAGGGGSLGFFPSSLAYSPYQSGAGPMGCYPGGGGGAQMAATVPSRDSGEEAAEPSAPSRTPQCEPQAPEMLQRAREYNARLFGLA


Legend:
NF-kB p65 (RelA) [1] = molecular target: T2, NF-kB p65 (RelA) (UniProt Q04206 Q04206:1-551); test: competition; ELISA competition with immobilized consensus site; 4.77 in Table 3-2, 4.93 in Table 4; Table 7 lists 4.93, 4.30, 3.24 in PSODN, FSODN, ODN columns; conditions: protein: extract; tags: TPA and CI-stimulated Jurkat nuclear extract, Active Motif TransAM kit
T2 sequence (Q04206 whole entry, one chain of several): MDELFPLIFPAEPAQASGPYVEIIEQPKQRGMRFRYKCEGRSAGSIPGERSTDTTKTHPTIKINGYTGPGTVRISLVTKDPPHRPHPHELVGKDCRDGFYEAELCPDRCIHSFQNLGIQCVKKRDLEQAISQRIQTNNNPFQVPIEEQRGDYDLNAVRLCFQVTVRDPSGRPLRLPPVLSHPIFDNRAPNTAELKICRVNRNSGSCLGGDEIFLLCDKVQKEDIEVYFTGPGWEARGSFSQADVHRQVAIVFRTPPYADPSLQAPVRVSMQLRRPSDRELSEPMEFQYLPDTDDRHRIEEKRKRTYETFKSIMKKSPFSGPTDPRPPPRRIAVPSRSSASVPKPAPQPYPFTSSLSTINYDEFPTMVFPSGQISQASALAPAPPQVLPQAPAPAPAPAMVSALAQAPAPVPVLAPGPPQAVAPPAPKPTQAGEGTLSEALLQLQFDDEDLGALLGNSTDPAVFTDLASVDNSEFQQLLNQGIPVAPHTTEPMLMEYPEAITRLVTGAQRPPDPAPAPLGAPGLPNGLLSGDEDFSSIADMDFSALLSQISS

NF-kB p50 (NFKB1) = NF-kB p50 (NFKB1) (UniProt P19838 P19838:1-433); test: competition; conditions: protein: extract; tags: TPA and CI-stimulated Jurkat nuclear extract, Active Motif
Sequence of NF-kB p50 (NFKB1) (P19838 1-433, one chain of several): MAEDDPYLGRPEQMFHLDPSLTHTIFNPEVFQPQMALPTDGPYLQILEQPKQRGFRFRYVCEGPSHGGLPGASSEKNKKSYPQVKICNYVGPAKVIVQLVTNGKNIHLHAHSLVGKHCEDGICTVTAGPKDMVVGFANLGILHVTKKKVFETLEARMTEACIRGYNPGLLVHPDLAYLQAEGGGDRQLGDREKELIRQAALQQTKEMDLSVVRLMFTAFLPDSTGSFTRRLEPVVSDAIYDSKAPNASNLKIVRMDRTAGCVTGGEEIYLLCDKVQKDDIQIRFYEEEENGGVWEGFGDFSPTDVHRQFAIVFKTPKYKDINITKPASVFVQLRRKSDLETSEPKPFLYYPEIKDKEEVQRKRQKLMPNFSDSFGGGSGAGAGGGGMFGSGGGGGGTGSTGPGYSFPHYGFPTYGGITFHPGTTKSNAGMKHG
Method: (§1) The study was carried out in basically the same manner as in the above-described primary screening. The activities to inhibit the binding of various NF-κB family proteins to the consensus NF-κB binding site were compared under the conditions of common ratio of 3-fold, 6 times, n=2. As a control for comparison, fully phosphorothioated decoy oligonucleotide […] (SEQ ID NO:103) was used. The binding inhibition tests against various NF-κB family proteins were conducted using NF-κB Family TransAM Kit (ACTIVE MOTIF), and using NF-κB molecules in the Jurkat, TPA and CI-Stimulated, Nuclear Extract (ACTIVE MOTIF) for p50, and using NF-κB molecules in the Raji nuclear extract (ACTIVE MOTIF) for Rel-B and p52. As the primary antibodies, anti-NF-κB p50 antibody, anti-NF-κB p52 antibody and anti-Rel-B antibody were used, respectively, and the secondary antibody was HRP-labeled anti-rabbit IgG antibody in all cases.
(§2) More concretely, the above-described measurements were carried out as follows: Each oligonucleotide solution was serially diluted with Complete Binding Buffer to prepare test samples. Each of the test samples was added to the wells in an amount of 30 μL per well, and Complete Binding Buffer was added to the wells of the control and blank. Nuclear extract diluted with Complete Lysis Buffer was added to the wells in an amount of 20 μL per well, and Complete Lysis Buffer was added to the wells of blank. After incubation for 1 hour with shaking, each well was washed with 1× Wash Buffer, and the primary antibody was added, followed by incubation for 1 hour. Each well was washed with 1× Wash Buffer, and the secondary antibody was added, followed by incubation for 1 hour. Each well was washed with 1× Wash Buffer, and the Developing Solution was added. After allowing coloration for 10 minutes, the Stop Solution was added to stop the reaction, and the absorbances at 450 nm and 630 nm were measured.
(§3) The absorbance at 630 nm was subtracted from the absorbance at 450 nm and the mean value of the blanks was further subtracted from the resultant, and the percentage of the mean value of each concentration based on the mean value of the controls was calculated.

NF-kB p52 (NFKB2) = molecular target: T1, NF-kB p52 (NFKB2); test: competition; conditions: protein: extract; tags: Raji nuclear extract, Active Motif
Method: as §1, §2, §3

NF-kB p65 (RelA) [2] = molecular target: T2, NF-kB p65 (RelA); test: competition; primary screen 1.31; conditions: protein: extract; tags: TPA and CI-stimulated Jurkat nuclear extract, Active Motif TransAM kit
Method: (§4) The measurement was performed in accordance with the instructions attached to the kit. The kit was made for quantifying the NF-κB bound to the solid phase by ELISA after adding an NF-κB solution to the wells in which the NF-κB (p65 protein) consensus binding sequence was immobilized and after washing the resultant. By this measurement method, the higher the binding capacity of the oligonucleotide to the NF-κB, the smaller amount of the NF-κB quantified by the ELISA.
(§5) More concretely, the above-described measurement was carried out as follows concretely: Each SODN solution was serially diluted with Complete Binding Buffer contained in the kit to prepare test samples (common ratio: 3-fold, 4 times, n=3). […] After allowing coloration for 10 minutes, the Stop Solution was added to stop the reaction, and the absorbances at 450 nm and 630 nm were measured.
(§6) The absorbance at 630 nm was subtracted from the absorbance at 450 nm and the mean value of the blanks was further subtracted from the resultant, and the percentage of the mean value of each concentration based on the mean value of the controls was calculated. The concentration at which the calculated value was 50% (i.e., at which the binding was inhibited by 50%) was calculated from the regression lines between two points interposing 50% (an analysis software Graph Pad PRISM 4, GraphPad SOFTWARE was used). […]

NF-kB p65 (RelA) [3] = molecular target: T2, NF-kB p65 (RelA); test: competition; primary screen >5; conditions: protein: extract; tags: TPA and CI-stimulated Jurkat nuclear extract, Active Motif TransAM kit
Method: as §4, §5, §6

NF-kB p65 (RelA) [4] = molecular target: T2, NF-kB p65 (RelA); test: competition; primary screen 3.06; conditions: protein: extract; tags: TPA and CI-stimulated Jurkat nuclear extract, Active Motif TransAM kit
Method: as §4, §5, §6

NF-kB p65 (RelA) [5] = molecular target: T2, NF-kB p65 (RelA); test: competition; conditions: protein: extract; tags: TPA and CI-stimulated Jurkat nuclear extract, Active Motif TransAM kit
Method: The binding capacity of each SODN to NF-κB was evaluated by measuring the remaining free NF-κB after reacting each SODN with NF-κB (p65), using a commercially available kit (TransAM Kit (NF-κB, p65, ACTIVE MOTIF) for measuring NF-κB, and using NF-κB molecules in the Jurkat, TPA and CI-Stimulated, Nuclear Extract (nuclear extract of Jurkat cells stimulated with a phorbol ester (TPA) and a calcium ionophore (CI)). The measurement was performed in accordance with the instructions attached to the kit. The kit was made for quantifying the NF-κB bound to the solid phase by ELISA after adding an NF-κB solution to the wells in which the NF-κB (p65 protein) consensus binding sequence was immobilized and after washing the resultant. By this measurement method, the higher the binding capacity of the oligonucleotide to the NF-κB, the smaller amount of the NF-κB quantified by the ELISA.
More concretely, the above-described measurement was carried out as follows concretely: Each SODN solution was serially diluted with Complete Binding Buffer contained in the kit to prepare test samples (common ratio: 3-fold, 4 times, n=3). To each well, 30 μL of the test sample was added. To the wells of the control and blank, Complete Binding Buffer was added. To each well, 20 μL of the Jurkat, TPA and CI-Stimulated, Nuclear Extract contained in the kit, after dilution with Complete Lysis Buffer to a concentration of 125 μg/mL, was added. To the wells of the blank, Complete Lysis Buffer was added. After incubation for 1 hour with shaking, each well was washed with 1× Wash Buffer contained in the kit, and an anti-NF-κB (p65 protein) antibody was added, followed by incubation for 1 hour. Each well was washed with 1× Wash Buffer, and the Developing Solution contained in the kit was added. After allowing coloration for 10 minutes, the Stop Solution was added to stop the reaction, and the absorbances at 450 nm and 630 nm were measured.
The binding capacities of the partially phosphorothioated oligonucleotides (the bonds between only all of the nucleotides constituting the consensus sequence in both strands are phosphorothioated, hereinafter also referred to as “PSODN”) of SODNs 7, 8, 9, 16, 17 and 30 of the present invention to the NF-κB (p65 protein) were tested in the same manner as described above.

Row | Binder | IC50 (NF-kB p50 (NFKB1)) [nM] | IC50 (NF-kB p52 (NFKB2)) [nM] | IC50 (NF-kB p65 (RelA) [5]) [nM] | further results
1 | Control decoy (conventional NF-kB decoy) (dsDNA, PS all bonds, both strands) DNA 1: CCTTGAAGGGATTTCCCTCC DNA 2: GGAGGGAAATCCCTTCAAGG | 8.45 | 8.42 |  | IC50 (NF-kB p65 (RelA) [1]): 5.26 nM
2 | SODN6 (dsDNA, PS all bonds, both strands) DNA 1: CGAGGGATTTCCCGGC DNA 2: GCCGGGAAATCCCTCG |  |  |  | IC50 (NF-kB p65 (RelA) [2]): 2.33 nM
3 | SODN83 (dsDNA, PS all bonds, both strands) DNA 1: CAAGTAGGGATTTCCCATAC DNA 2: GTATGGGAAATCCCTACTTG |  |  |  | IC50 (NF-kB p65 (RelA) [3]): 7.33 nM
4 | SODN91 (dsDNA, PS all bonds, both strands) DNA 1: GTAAAATGGGATTTCCCGAG DNA 2: CTCGGGAAATCCCATTTTAC |  |  |  | IC50 (NF-kB p65 (RelA) [4]): 2.58 nM
5 | PSODN7 (dsDNA, PS only within consensus gggatttccc, both strands) DNA 1: CGCGGGATTTCCCAGC DNA 2: GCTGGGAAATCCCGCG | 1.02 | 3.01 | 0.54 | 
6 | PSODN8 (dsDNA, PS only within consensus gggatttccc, both strands) DNA 1: CCCGGGATTTCCCACC DNA 2: GGTGGGAAATCCCGGG | 1.08 | 3.22 | 0.63 | 
7 | PSODN9 (dsDNA, PS only within consensus gggatttccc, both strands) DNA 1: GGAGGGATTTCCCGGG DNA 2: CCCGGGAAATCCCTCC | 0.91 | 1.55 | 0.54 | 
8 | PSODN16 (dsDNA, PS only within consensus gggatttccc, both strands) DNA 1: CGCAGGGATTTCCCGCG DNA 2: CGCGGGAAATCCCTGCG | 0.8 | 2.37 | 0.41 | 
9 | PSODN17 (dsDNA, PS only within consensus gggatttccc, both strands) DNA 1: CCCTGGGATTTCCCGCC DNA 2: GGCGGGAAATCCCAGGG | 0.91 | 4.29 | 0.48 | 
